These are literature values, as cited in article PMC4941815.

The Kd is the equilibrium constant for the complex coming apart.

Data set [1] deals with SRPK1 (Homo sapiens) (UniProt Q96SB4). Put plainly: competition.
Data set [2] deals with CLK1 (Homo sapiens) (UniProt P49759). The experiment in a line: competition.
CLK1 (Homo sapiens), sequence (P49759 whole entry): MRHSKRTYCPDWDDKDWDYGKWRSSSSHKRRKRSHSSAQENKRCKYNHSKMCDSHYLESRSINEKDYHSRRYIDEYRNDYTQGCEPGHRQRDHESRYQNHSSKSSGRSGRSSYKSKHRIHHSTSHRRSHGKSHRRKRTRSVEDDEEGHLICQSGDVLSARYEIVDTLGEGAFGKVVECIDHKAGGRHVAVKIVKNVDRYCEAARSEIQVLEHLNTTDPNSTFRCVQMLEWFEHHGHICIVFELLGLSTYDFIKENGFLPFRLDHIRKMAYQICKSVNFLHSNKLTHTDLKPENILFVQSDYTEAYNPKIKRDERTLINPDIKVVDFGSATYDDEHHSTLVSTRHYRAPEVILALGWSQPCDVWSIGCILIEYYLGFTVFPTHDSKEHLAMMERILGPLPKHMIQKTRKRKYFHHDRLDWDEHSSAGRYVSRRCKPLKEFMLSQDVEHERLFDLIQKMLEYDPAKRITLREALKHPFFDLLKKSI

SRSF1, sequence (Q07955 2-248): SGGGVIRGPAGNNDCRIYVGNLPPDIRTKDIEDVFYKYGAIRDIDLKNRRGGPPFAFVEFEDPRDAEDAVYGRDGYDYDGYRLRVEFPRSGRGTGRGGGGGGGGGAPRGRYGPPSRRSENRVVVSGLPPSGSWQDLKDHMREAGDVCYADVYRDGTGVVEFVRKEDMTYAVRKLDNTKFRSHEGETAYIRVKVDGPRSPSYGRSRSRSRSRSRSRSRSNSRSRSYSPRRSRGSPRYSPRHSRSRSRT
SRPK1 (Homo sapiens), sequence (Q96SB4 whole entry): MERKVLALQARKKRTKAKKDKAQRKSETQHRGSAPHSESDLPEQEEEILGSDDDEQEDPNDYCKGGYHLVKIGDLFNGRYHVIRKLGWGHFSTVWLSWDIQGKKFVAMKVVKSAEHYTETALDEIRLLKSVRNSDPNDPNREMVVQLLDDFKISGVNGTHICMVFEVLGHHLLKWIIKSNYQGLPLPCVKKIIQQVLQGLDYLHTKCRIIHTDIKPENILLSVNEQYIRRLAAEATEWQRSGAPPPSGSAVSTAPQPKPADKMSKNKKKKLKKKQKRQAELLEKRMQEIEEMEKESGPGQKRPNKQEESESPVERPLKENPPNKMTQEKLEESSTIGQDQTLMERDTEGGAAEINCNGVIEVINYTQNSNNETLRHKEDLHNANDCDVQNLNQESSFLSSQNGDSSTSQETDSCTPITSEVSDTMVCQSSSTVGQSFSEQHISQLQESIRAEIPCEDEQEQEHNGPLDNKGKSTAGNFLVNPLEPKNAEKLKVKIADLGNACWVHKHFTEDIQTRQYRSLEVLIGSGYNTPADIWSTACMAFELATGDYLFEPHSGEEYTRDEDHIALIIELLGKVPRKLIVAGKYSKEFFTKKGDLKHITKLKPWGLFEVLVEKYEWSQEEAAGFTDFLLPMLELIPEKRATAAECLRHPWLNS

As for SRSF1 (from UniProt Q07955), the Kd in data set [1] was 60 nM; in data set [2] it was 6 nM.
